Measured values: patent US12303551B2, “Cellular immunotherapy compositions and uses thereof” (CERO THERPEUTICS HOLDINGS, INC., priority 2018, dated 2025)

B1: CER30: Chimeric engulfment receptor: Tim4 binding, Tim4 transmembrane, TRAF2 signaling; SEQ ID NO: 120 (protein)
chain: MSKGLLLLWLVTELWWLYLTPAASEDTIIGFLGQPVTLPCHYLSWSQSRNSMCWGKGSCPNSKCNAELLRTDGTRIISRKSTKYTLLGKVQFGEVSLTISNTNRGDSGVYCCRIEVPGWFNDVKKNVRLELRRATTTKKPTTTTRPTTTPYVTTTTPELLPTTVMTTSVLPTTTPPQTLATTAFSTAVTTCPSTTPGSFSQETTKGSAFTTESETLPASNHSQRSMMTISTDIAVLRPTGSNPGILPSTSQLTTQKTTLTTSESLQKTTKSHQINSRQTILIIACCVGFVLMVLLFLAFLMAAASVTPPGSLELLQPGFSKTLLGTKLEAKYLCSACRNVLRRPFQAQCGHRYCSFCLASILSSGPQNCAACVHEGIYEEGISILESSSAFPDNAARREVESLPAVCPSDGCTWKGTLKEYESCHEGRCPLMLTECPACKGLVRLGEKERHLEHECPERSLSCRHCRAPCCGADVKAHHEVCPKFPLTCDGCGKKKIPREKFQDHVKTCGKCRVPCRFHAIGCLETVEGEKQQEHEVQWLREHLAMLLSSVLEAKPLLGDQSHAGSELLQRCESLEKKTATFENIVCVLNREVERVAMTAEAC
modifications: CER30, amino acids 1-22 are signal peptide
B2: CER110: Chimeric engulfment receptor: Tim4 binding, Tim4 transmembrane, TRAF6 and DAP12 signaling; SEQ ID NO: 145 (protein)
chain: MSKGLLLLWLVTELWWLYLTPAASEDTIIGFLGQPVTLPCHYLSWSQSRNSMCWGKGSCPNSKCNAELLRTDGTRIISRKSTKYTLLGKVQFGEVSLTISNTNRGDSGVYCCRIEVPGWFNDVKKNVRLELRRATTTKKPTTTTRPTTTPYVTTTTPELLPTTVMTTSVLPTTTPPQTLATTAFSTAVTTCPSTTPGSFSQETTKGSAFTTESETLPASNHSQRSMMTISTDIAVLRPTGSNPGILPSTSQLTTQKTTLTTSESLQKTTKSHQINSRQTILIIACCVGFVLMVLLFLAFLMSLLNCENSCGSSQSESDCCVAMASSCSAVTKDDSVGGTASTGNLSSSFMEEIQGYDVEFDPPLESKYECPICLMALREAVQTPCGHRFCKACIIKSIRDAGHKCPVDNEILLENQLFPDNFAKREILSLMVKCPNEGCLHKMELRHLEDHQAHCEFALMDCPQCQRPFQKFHINIHILKDCPRRQVSCDNCAASMAFEDKEIHDQNCPLANVICEYCNTILIREQMPNHYDLDCPTAPIPCTFSTFGCHEKMQRNHLARHLQENTQSHMRMLAYFLGRLVPRGRGAAEAATRKQRITETESPYQELQGQRSDVYSDLNTQRPYYK
modifications: CER110, amino acids 1-22 are signal peptide
B3: CER29: Chimeric engulfment receptor: Tim4 binding, Tim4 transmembrane, TRAF6 signaling; SEQ ID NO: 99 (protein)
chain: MSKGLLLLWLVTELWWLYLTPAASEDTIIGFLGQPVTLPCHYLSWSQSRNSMCWGKGSCPNSKCNAELLRTDGTRIISRKSTKYTLLGKVQFGEVSLTISNTNRGDSGVYCCRIEVPGWFNDVKKNVRLELRRATTTKKPTTTTRPTTTPYVTTTTPELLPTTVMTTSVLPTTTPPQTLATTAFSTAVTTCPSTTPGSFSQETTKGSAFTTESETLPASNHSQRSMMTISTDIAVLRPTGSNPGILPSTSQLTTQKTTLTTSESLQKTTKSHQINSRQTILIIACCVGFVLMVLLFLAFLMSLLNCENSCGSSQSESDCCVAMASSCSAVTKDDSVGGTASTGNLSSSFMEEIQGYDVEFDPPLESKYECPICLMALREAVQTPCGHRFCKACIIKSIRDAGHKCPVDNEILLENQLFPDNFAKREILSLMVKCPNEGCLHKMELRHLEDHQAHCEFALMDCPQCQRPFQKFHINIHILKDCPRRQVSCDNCAASMAFEDKEIHDQNCPLANVICEYCNTILIREQMPNHYDLDCPTAPIPCTFSTFGCHEKMQRNHLARHLQENTQSHMRMLA
modifications: CER29, amino acids 1-22 are signal peptide

What was measured:
[1] = system: SCC152 cells; assay: Elimination of GFP-expressing SCC152 target cells over time (quantification and time lapse imaging); type: cell-based
Method: Target SCC152 cells were co-cultured with CD8+ T cells transduced with HPV E7 TCR+CD4+ T cells transduced with a selected CER, or controls (CD8+ T cell transduced with HPV E7 TCR+CD4+ transduced control) at a 1:1:1 ratio. The number of target cells were quantified using imaging software. 0 hours, 24 hours, and 48 hours are shown from left to right.
(§1) FIG. 21 is time lapse imaging from 96-well co-culture experiments comprising CD8+ T cells transduced with HPV16 E7 TCR+CD4+ T cells transduced with CER5, CER17 or CER19 incubated with SCC152 target cells at a 1:1:1 ratio. SCC152 HPV+ target cells were quantified using automated cell counting software.
as §1, with “22” for “21”, “CER21, CER23” for “CER5, CER17”, “CER26” for “CER19”
as §1, with “23” for “21”, “CER103b, CER104” for “CER5, CER17”, “CER105” for “CER19”
as §1, with “24” for “21”, “CER106, CER116” for “CER5, CER17”, “CER27” for “CER19”
FIG. 57 is a bar graph showing quantification of loss of SCC152 HPV16+ target cells over time during co-culture assays. SCC152 cells were transduced with green fluorescent protein (GFP) and co-cultured with CD8+ T cells transduced with HPV16 E7 TCR and CD4+ T cells transduced with a selected CER (CER29, CER30, CER110, CER112, CER113, CER114, CER116, or CER117) or a CD4+ T cell control at a 1:1:1 ratio (CD8:CD4:target cell). The number of target cells was quantified at various time points during co-culture (0 hrs, 12 hrs, 24 hrs, and 36 hrs) using fluorescence microscopy and imaging software.
(§2) FIG. 58 are fluorescence micrograph images of the co-culture assay described in FIG. 57, showing clearance of the SCC152 cells (pink) as co-culture with CD8+ T cells transduced with HPV16 E7 TCR and CD4+ T cells transduced with a selected CER (columns from left to right: control, CER29, CER30, CER110, or CER112) progresses (rows from top to bottom: 0 hrs, 12 hrs, 24 hrs, and 36 hrs).
as §2, with “59” for “58”, “CER113, CER114, CER116,” for “CER29, CER30, CER110,”, “CER117)” for “CER112)”
(§3) Elimination of target SCC152 cells was also detected by quantifying green fluorescent protein expression by SCC152 cells over time (0 hr, 24 hr, 48 hr) during co-incubation with CD8+ T cells transduced with HPV16 E7 specific TCR+ CD4 T cells transduced with selected CER (see, FIG. 20).
as §3, with “hr, 12 hr,” for “hr,”, “hr, 36” for “hr, 48”, “TCR+ CD4+” for “TCR+ CD4”, “CER (CER29, CER30, CER110, CER112, CER113, CER114, CER116, or CER117)” for “CER”, “FIG. 57).” for “FIG. 20).”

[2] = system: SCC152 target cells; assay: Phagocytosis of SCC152 by CD4+ T cell/CER, fluorescence microscopy with hybrid capture; type: cell-based; conditions: TRAF-domain CERs, 4 hours, 1:1:0.5 (CD8:CD4:target cell); versus CD4+ control + CD8+/E7 TCR
Method: (§4) FIG. 28 is a bar graph representing quantification of CD4+ T cell-CER mediated phagocytosis of SCC152 target cells. Results calculated as ((number of phagocytic target events)/(total number of effectors))*100 from 3×3 40× images, 4 hours after initiation of co-culture assay. CD8+ T cells transduced with HPV16 E7 TCR and CD4+ T cells transduced with selected CERs (CER5, CER17, CER19, CER21, CER23, CER26, CER27, CER103b, CER104, CER105, CER106, or CER116) were co-cultured with SCC152 squamous head and neck carcinoma target cells at a 1:1:0.5 ratio for 4 hours and imaged.
as §4, with “29” for “28”, “(median area ratio” for “((number”, “of” for “of phagocytic”, “events in effector cells*% phagocytosis)” for “events)/(total number of effectors))*100”
(§5) FIG. 55 is a bar graph representing quantification of CD4+ T cell-CER mediated phagocytosis of SCC152 target cells. Percent phagocytosis was calculated as ((number of phagocytic target events)/(total number of effector cells))*100. These numbers were calculated from 3×3 images captured by Keyence BZ-X710 fluorescence microscope at 40× resolution, 4 hours after initiation of co-culture assay. CD8+ T cells transduced with HPV16 E7 TCR and CD4+ T cells transduced with a selected CER (CER29, CER30, CER110, CER112, CER113, CER114, CER116, or CER117) were co-cultured with SCC152 target cells at a 1:1:0.5 ratio (CD8:CD4:target cell) for 4 hours and imaged.
as §5, with “56” for “55”, “Adjusted phagocytic index” for “Percent phagocytosis”, “(median area ratio” for “((number”, “of” for “of phagocytic”, “events in” for “events)/(total number of”, “cells*% phagocytosis).” for “cells))*100.”
Phagocytic activity of CD4+ T cell/CER+CD8+ T cell/HPV16 E7 TCR combinations co-cultured with SCC152 cells was visualized and quantified using KEYENCE BZ-X710 fluorescence microscope, […] and hybrid capture software.

Row | Molecule | elimination of SCC152 cells, time lapse imaging ([1]; 0 to 36 hrs, compared to the control) | elimination of SCC152 cells (GFP quantification) ([1]; by 36 hrs, 1:1:1 ratio (CD8:CD4:target cell), compared to control) | engulfment of SCC152 target cells (percent phagocytosis, adjusted phagocytic index) [2]
1 | B1 | enhanced elimination of SCC152 cells | nearly complete elimination | enhanced engulfment
2 | B2 |  |  | enhanced engulfment
3 | B3 |  |  | enhanced engulfment
